# Assay results taken from the nanobody polyreactivity screen of Harvey et al. (2022).
# Test: yeast display, Sf9 membrane polyspecificity reagent, FACS + sequencing; frameworks hold sequencing errors
# How it was run: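 A nanobody's polyreactivity label depends on the gate it was sorted from. Yeast display cells were stained with 10% biotinylated, detergent-solubilized Sf9 membrane reagent for 1 hour at 4 °C, enriched on streptavidin microbeads and sorted by FACS. The low and high (top ~1%) gates were set on anti-HA fluorescence for expression and streptavidin fluorescence for reagent binding.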
row,Sequence,polyreactivity (PSR sort gate)
1,QVQLVESGGGLVQAGGSLRLSCAASGSIFFDGNAMGWYRQAPGKERELVAAISVSGGSTYYADSVKGRFTISRDNAKNTVYLQMNSVKPEDTAVYYCAKYPSKSYVPGDYWGQGTQVTVSS,low polyreactivity
2,QVQLVESGGGLVQAGGSLRLSCAASGSIFFGNAMGWYRQAPGKERELVAAITRRGGSTYYADSVKGRFTISRDNEKNTVYLQMNSLKPEDTAVYYCKAVSKRYGYGYWGLGTQVTVSS,high polyreactivity
3,QVQLVESGGGLVQAGGSLRLSCAASGSIFFGYAMGWYRQAPGKERELVAGISSNGGTTYYADSVKGRFTISRDYAKNTVYLQMNSLKPEDTAVYYCAKQYYARGYLYDYWGQGTQVTVSS,low polyreactivity
4,QVQLVESGGGLVQAGGSLRLSCAASGSIFFGYGMGWYRQAPGKERELVATITTSGGTYYADSVKGRFTISRDNAKNTVYLQMNSLKPEDTAVYYCAATAAALDGNTIMYYWGQGTQVTVSS,low polyreactivity
5,QVQLVESGGGLVQAGGSLRLSCAASGSIFFIYAMAWYRQAPGKERELVATISRSDVSTFYADSVKGRFTISRDNAKNTVYLQMNSLKPEDTAVYYCAARTGRGDRTRRYYYWGQGTQVTVSS,high polyreactivity
6,QVQLVESGGGLVQAGGSLRLSCAASGSIFFLYAMGWYRQAPGKERELVAAISGGGGSTYYADSVKGRFTISRDNAKNTVYLQMNSLKPEDTAVYYCDALSKTRGGYWGQGTQVTVSS,high polyreactivity
7,QVQLVESGGGLVQAGGSLRLSCAASGSIFFNNAMGWYRQAPGKERELVAAITTGGSTYYADSVKGRFTISRDNAKNTVYLQMNSLKPEDTAVYYCAAVVVYPYRLGYDYWGQGTQVTVSS,low polyreactivity
8,QVQLVESGGGLVQAGGSLRLSCAASGSIFFNTMGWYIQAPGKERELVAAISRSGGSTYYADSVKGRFTISRDNAKNTVYLQMNSLKPEDTAVYYCNALRWSQYTYSSRLGHFDSWGQGTQVTVSS,high polyreactivity
9,QVQLVESGGGLVQAGGSLRLSCAASGSIFFNTMGWYRQAPGKERELVAAISRSGGSTYYADSVKGRFTISRDNAKNTVYLQMNSLKPEDTAVYYCNALRWSQYTYSSRLGHFDSWGQGTQVTVSS,high polyreactivity
10,QVQLVESGGGLVQAGGSLRLSCAASGSIFFPYAMGWYRQAPGKERELVARISWGAGRTYYADSVKGRFTISRDNAKNTVYLQMNSLKPEDTAVYYCAARDRTRYAGYNYWGQGTQVTVSS,high polyreactivity
11,QVQLVESGGGLVQAGGSLRLSCAASGSIFFPYVMGWYRQAPGKERELVAAIRRGGGSTYYADSVKGRFTISRDNAKNTVYLQMNSLKPEDTAVYYCAAKGWYVQHFKRGLYNYWGQGTQVTVSS,high polyreactivity
12,QVQLVESGGGLVQAGGSLRLSCAASGSIFFQNGMGWYRQAPGKERELVAAISSSGDSTYYADSVKGRFTISRDYAKNTVYLQMNSLKPEDTAVYYCAAEPEYVSGPYDYWGQGTQVTVSS,low polyreactivity
13,QVQLVESGGGLVQAGGSLRLSCAASGSIFFQYGMGWYRQAPGKEREFVAAISVSGGSTYYADSVKGRFTISRDNAKNTVYLQMNSLKPEDTAVYYCAAEFRGDTTSLVYASSYDYWGQGTQVTVSS,low polyreactivity
14,QVQLVESGGGLVQAGGSLRLSCAASGSIFFRNAMGWYRQAPGKEREFVAVINYSGGSTRYADSVKGRFTISRDNAKNTVYLQMNSLKPEDTAVYYCATRLYISKMYYWGQGTQVTVSS,high polyreactivity
15,QVQLVESGGGLVQAGGSLRLSCAASGSIFFSNDMGWYRQAPGKERELVASITRDGTSTYADSVKGRFTISRDNAKNTVYLQMNSLKPEETAVYYCAADRYLQGFYGRWHGYDSWGQGTQVTVSS,low polyreactivity
16,QVQLVESGGGLVQAGGSLRLSCAASGSIFFWYTMGWYRQAPGKERELVATITGSGSSTTYADSVKGRFTISRDNAKNTVYFQMNSLKPEDTAVYYCAAADIIDHSFPYDYWGQGTQVTVSS,low polyreactivity
17,QVQLVESGGGLVQAGGSLRLSCAASGSIFFWYTMGWYRQAPGKERELVATITGSGSSTTYADSVKGRFTISRDNAKNTVYLQMNSLKPEDTAVYYCAAADIIDHSFPYDYWGQGTQVTVSS,low polyreactivity
18,QVQLVESGGGLVQAGGSLRLSCAASGSIFFYAMGWYRQAPGKERELVADITYTGGSKYADSEKGRFTISRDNAKNTVYLQMNSLKPEETAVYSGATLDGGLFDDWGQGTQVTVSS,low polyreactivity
19,QVQLVESGGGLVQAGGSLRLSCAASGSIFFYNVMGWYRQAPGKERELVAAITRSGGRTYYADSVKGRFTISRDNAKNNVYLQMNSLKPEDTAVYYCAAALGGKFDYWGQGTQVTVSS,high polyreactivity
20,QVQLVESGGGLVQAGGSLRLSCAASGSIFFYYAMGWYRQAPGKERELVAAINWSGVNTYYADSVKGRFTISRDNAKNTVYLQMNSLKPEDTAVYYCNAVVSLTSYGYLGYRFDYWGQGTQVTVSS,low polyreactivity
21,QVQLVESGGGLVQAGGSLRLSCAASGSIFFYYAMGWYRQAPGKERELVASISTDGSTYADSVKGRFTISRDNAKNTVYLQMNSLKPEDTAVYYCATRGAEAERFASYDFDYWGQGTQVTVSS,low polyreactivity
22,QVQLVESGGGLVQAGGSLRLSCAASGSIFFYYAMGWYRQATGKERELVAAISIAGSTNYADSVKGRFTISRDNAKNTVYLQMNSLKPEDTAVYYCAKEYRWGQSQLDYWGQGTQVTVSS,low polyreactivity

row,Sequence,polyreactivity (PSR sort gate)
1,QVQLVESGGGLVQAGGSLRLSCAASGSIFFYYTMGWYRQAPGKERELVAAITWSGGSTYYADSVKGRFTISRDNAKNTVYLQMNSLKPEDTAVYYCAAGTRLYYYRLNYWGQGTQVTVSS,high polyreactivity
2,QVQLVESGGGLVQAGGSLRLSCAASGSIFGANAMGWYRQAPGKERELVAAISTRGGRTYYADSVKARFTISRDNAKNTVSLQMNSLKPEDTALYYCAARRFSKVRSMYYWRQGTQVTVSS,high polyreactivity
3,QVQLVESGGGLVQAGGSLRLSCAASGSIFGAYAMGWYRQAPGKEREFVAAISSRGGNTYYADSVKGRFTISRDNAKNTVYLQMNSLKPEDTAVYYAVFRYHWKYDYWGQGTQVTVSS,high polyreactivity
4,QVQLVESGGGLVQAGGSLRLSCAASGSIFGAYAMGWYRQAPGKERELVAAISSGGSTYADSVKGRFTISRDNAKNTVYLQMNSMKPEDTAVYYCNAVFRARNYHYNPRRFKYYYWGQGTQVSVSS,high polyreactivity
5,QVQLVESGGGLVQAGGSLRLSCAASGSIFGAYTMGWYRQAPGKEREFVAVISKGGTNTYYADSVKGRFTISRDNAKNTVYLQMNSLKPEDTAVYYCAARAYPTWRTYYYWGQGTQVTVSS,high polyreactivity
6,QVQLVESGGGLVQAGGSLRLSCAASGSIFGDNAMGWYRQAPGKERELVATISSSDASTYYADSVKGRFTISRDNAKNTVYLQMNSLKPEDTSVYYCAAARSGGYDYWGQGTQVTVSS,low polyreactivity
7,QVQLVESGGGLVQAGGSLRLSCAASGSIFGDYAMGWYRQAPGKERELVAAISRADGTYYADSVKGRFTISRDNAKNTVYLQMNSLKPEDTAVYYCATDYGIRSYYYSWYYVFTADDYWGQGTQVTVSS,low polyreactivity
8,QVQLVESGGGLVQAGGSLRLSCAASGSIFGDYAMGWYRQAPGTDRELVATITWIGGSTYYADSVKGRFTISRDNAKNTVYCQMNSLKPEDTAVYYCAATKYVDVKYYYWGQGTQVTVSS,low polyreactivity
9,QVQLVESGGGLVQAGGSLRLSCAASGSIFGDYDMGWYRQAPGKERELVAAITSGGSTDYADSVKGRFTISRDNAKNTVYLQMNRLKPEDTAVYYCAAEDKCGYFLFPFWLELDYWGQGTQVTVSS,low polyreactivity
10,QVQLVESGGGLVQAGGSLRLSCAASGSIFGFYAMGWYRQAPGKERELVAVISVSDGSTYYADSVKGRFTISRDNAKNTVYLQMNCLKPEDTAVYYCAATPRGSYGYYYWGQGTQVTVSS,low polyreactivity
11,QVQLVESGGGLVQAGGSLRLSCAASGSIFGGNAMGWYRQAPGKERELVAAITDGGNTNYADSVKGRFTISRDNAKNTVYLQINSLKPEDTAVYYCAARIPGTYGGRYGYDYWGQGTQVTVSS,low polyreactivity
12,QVQLVESGGGLVQAGGSLRLSCAASGSIFGGYAMGGYRQAPGKERELFARITDRGGSTDYADSVKGRFTISRDNAKNTVYLQMNRLKPEDTAVYYCAKRGDRYEKRPRDYWGQGTQVTVSS,low polyreactivity
13,QVQLVESGGGLVQAGGSLRLSCAASGSIFGGYAMGGYRQAPGKERELVAAISWSGDSTYYADSVKGRFTISRDNANNTDYLQMNSLKPEDTAVYYCAAYYLAWYAFRYKTVGSAMDYWGQGTQVTVSS,low polyreactivity
14,QVQLVESGGGLVQAGGSLRLSCAASGSIFGGYAMGSYRQAPGKERELVAAISSGGTTNYADSVKGRFTISRDNAKNTVYLQMNSLKPEDTAVYYCAREYGPTYQSVPVKFIQLDYWGQGTQVTVSS,low polyreactivity
15,QVQLVESGGGLVQAGGSLRLSCAASGSIFGGYAMGWYRQAPGKERELVAAISSGGSTYYADSVKGRFTISRDNAKNTVYLQMNSLKPEDTAVYYCATSTYAYRRNSYYYTRPRFGYWGQGTQVTVSS,high polyreactivity
16,QVQLVESGGGLVQAGGSLRLSCAASGSIFGGYAMGWYRQAPGKERELVAAISYRGASTYYADSVKGRFTISRDNAKNTVYLQMNSLKPEDTAVYYCAVAARTRARVLYGYDYWGQGSQVTVSS,low polyreactivity
17,QVQLVESGGGLVQAGGSLRLSCAASGSIFGGYAMGWYRQAPGKERELVAAITWNGGSTYYADSVKGRFTISRDNAKNTVYLQMNSLKPEDTAVYYCAAELPGRDAGRYDYWGQGTQVTVSS,low polyreactivity
18,QVQLVESGGGLVQAGGSLRLSCAASGSIFGGYAMGWYRQAPGKEREWVAAITSSGGRTYYADSVKGRFTISRDNAKNTVYLQMNSLKPEDTAVYYCAARYTRWRYNYKDYDYWGQGTQVTVSS,high polyreactivity
19,QVQLVESGGGLVQAGGSLRLSCAASGSIFGGYGMGWYSQAPGKERELVAAITSGSSTYYADSVKGRFTISRDNAKNTVYLLMNSLKPEDTAVYYCAKVSYYPWRYDYWGQGTQVTVTS,low polyreactivity
20,QVQLVESGGGLVQAGGSLRLSCAASGSIFGGYTMGWYRPAPGKERELVAAITKNGGRTYYADSVKGRFTISRDTAKPTVYLQMNSLKPEDTAVYYCAAATSPSWYTWVTYDYWGQGTQVTVSS,high polyreactivity
21,QVQLVESGGGLVQAGGSLRLSCAASGSIFGGYTMGWYRQAPGKERELVAGITISGGSTYYADSVKGRFTISRDNAKNTVYLQMNSLKPEDTAVYYCAAVSFVVSSWGYGYWGQGTQVTVSS,low polyreactivity
